Assay results published in patent publication US20240424125A1 (Zymeworks, published 2024).

How the values were obtained:
[1] = molecular target: T1, FOLR3, commercial purified protein (R&D Systems Cat. No. 5319-FR) (human, UniProt P41439 23-245, limits assumed); assay: ELISA on coated FOLR3 protein
T1 construct: Coated on the ELISA plate; also called folate receptor gamma (FOLR3)
Method: FOLR3 binding: ELISA 96-well plate was coated with commercial purified FOLR3 protein (R&D Systems, Inc., Minneapolis, MN; Cat. No. 5319-FR) for 1 hr at 37° C. The plate was blocked with 1% milk in PBS pH 7.4 for 1 hr at RT. Following blocking, primary antibodies were added at 7 nM for 1 hr at RT. […] Plates were developed using tetramethylbenzidine (TMB) and HCl was used to stop reaction. Absorbance was read at 450 nm using a Synergy™ H1 microplate reader (BioTek Instruments, Winooski, VT).

[2] = molecular target: T2, human FRα on cells (human, UniProt P15328 25-234); assay: apparent Kd, flow cytometry on JEG-3 cells (endogenous FRα), 24 h at 4°C
T2 construct: Transiently expressed on HEK293-6e, CHO-S or HEK293 microarray cells, or endogenous on JEG-3, HEC-1-A, IGROV-1, OVCAR-3, H2110, KB-HeLa and T-47D cells; also called human folate receptor alpha; FOLR1
Method: Briefly, cells were seeded at 50,000 cells/well in V-bottom 96-well plates and treated with antibody for 24 hours at 4° C. to prevent internalization. […] Following incubation and washing, fluorescence was detected by flow cytometry on a BD LSRFortessa™ Cell Analyzer (BD Biosciences, Franklin Lake, NJ) with 1,000 minimum events collected per well. AF647/APC-A GeoMean (fluorescence signal geometric mean, proportional to anti-Human AF647 binding) in live cell population was plotted using GraphPad Prism Version 9 (GraphPad Software, San Diego, CA).

[3] = molecular target: T2, human FRα on cells; assay: flow cytometry, HEK293-6e cells transiently expressing the target, 50 nM antibody
Method: (§1) FRα, FOLR2 and FOLR4 binding: Briefly, HEK293-6e cells were transfected for ˜24 hours to transiently express human FRα (Cat. No. 13420), FOLR2 (Cat. No. 13481) and FOLR4 (Cat. No. 13483) (all from GenScript Biotech, Piscataway, NJ), 1 ug DNA per 1 million cells. Following transfection, 50,000 cells were seeded in V-bottom 96-well plates and incubated with 50 nM primary antibody for 45 min under standard culturing conditions. […] Following incubation and washing, fluorescence was detected by flow cytometry on a BD LSRFortessa™ Cell Analyzer (BD Biosciences, Franklin Lake, NJ) with 1,000 minimum events collected per well.
(§2) By flow cytometry, live singlet cell population was gated using FlowJo™ v8 software (RD Biosciences, Franklin Lake, NJ), and AF647 GeoMean and % positive binding was determined in this population for each antibody.

[4] = molecular target: T3, FOLR2 on HEK293-6e cells (human, UniProt P14207 17-230); assay: as above
T3 construct: whole, on cells; also called human folate receptor beta (FOLR2)
Method: as §1, §2

[5] = molecular target: T4, FOLR4 on HEK293-6e cells (human, UniProt A6ND01 20-228); assay: as above
T4 construct: whole, on cells; also called human folate receptor delta (FOLR4)
Method: as §1, §2

[6] = molecular target: T2, human FRα on cells; assay: apparent Kd, flow cytometry, CHO-S cells transiently expressing human FRα, 24 h at 4°C
Method: (§3) Briefly, CHO-S cells were transfected for −24 hours to transiently express human or cynomolgus monkey FRα, 1 ug DNA per 1 million cells. Following transfection, cells were seeded at 50,000 cells/well in V-bottom 96-well plates and treated with antibody for 24 hours at 4° C. to prevent internalization. […] Following incubation and washing, fluorescence was detected by flow cytometry on a BD LSRFortessa™ Cell Analyzer (BD Biosciences, Franklin Lake, NJ).

[7] = molecular target: T5, cynomolgus monkey FRα on cells (cynomolgus monkey, UniProt P15328 29-234 (human entry)); assay: apparent Kd, flow cytometry, CHO-S cells transiently expressing cynomolgus monkey FRα (same experiment as Table 15.1, more digits)
T5 construct: Transiently expressed on CHO-S cells; also called Cyno FRα; cynomolgus FRα
Method: as §3

[8] = molecular target: T6, recombinant His-tagged human FRα (ACROBiosystems) (human, UniProt P15328 25-233); assay: SPR (Biacore T200): hFRα amine-coupled to CM5 chip at medium antigen density, bivalent FSA injected, 1:1 Langmuir fit, mean of n=2
T6 construct: also called hFRα; hFRα antigen; not shown: His tag
Method: CM5 Series S sensor chip, Biacore™ amine coupling kit (NHS, EDC and 1 M ethanolamine), and 10 mM sodium acetate buffers were purchased from GE Healthcare Life Science (Mississauga, ON, Canada). PBS running buffer with 0.05% Tween20 (PBST) was purchased from Teknova Inc. (Hollister, CA). Recombinant human FRα was purchased from ACRObiosystems (Newark, DE).
Screening of the variants for binding to hFRα antigen was conducted in two steps: capture of hFRα onto surface, followed by injection of three to five concentrations of variant. The hFRα surface was prepared on a CM5 Series S sensor chip by standard amine coupling methods as described by the manufacturer (GE Healthcare Life Science, Mississauga, ON, Canada). The immobilization of the hFRα was performed using Biacore™ T200 immobilization wizard with an amine coupling method aiming for resonance units (RUs) ranging from 5 to 200 RUs. Using multi-cycle kinetics, three to five concentrations of a two-fold dilution series of samples starting at 300 nM with a blank buffer control were injected at 50 uL/min for 180s with a 600s dissociation phase, resulting in a set of sensorgrams with a buffer blank reference. The hFRα surface was regenerated to prepare for the next injection cycle by one pulse of 10 mM glycine/HCl pH 1.5 for 30s at 30 uL/min. Blank-subtracted sensorgrams were analyzed using Biacore™ T200 Evaluation Software v3.0. The blank-subtracted sensorgrams were then fit to the 1:1 Langmuir binding model.

T2 sequence (P15328 25-234 limits assumed): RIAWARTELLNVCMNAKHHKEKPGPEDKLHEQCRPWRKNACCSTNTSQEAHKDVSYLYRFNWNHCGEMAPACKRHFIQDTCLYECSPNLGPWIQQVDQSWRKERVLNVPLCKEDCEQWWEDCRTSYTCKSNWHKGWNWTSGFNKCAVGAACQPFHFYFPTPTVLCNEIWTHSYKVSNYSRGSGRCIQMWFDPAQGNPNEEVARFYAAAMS
T4 sequence (A6ND01 20-228): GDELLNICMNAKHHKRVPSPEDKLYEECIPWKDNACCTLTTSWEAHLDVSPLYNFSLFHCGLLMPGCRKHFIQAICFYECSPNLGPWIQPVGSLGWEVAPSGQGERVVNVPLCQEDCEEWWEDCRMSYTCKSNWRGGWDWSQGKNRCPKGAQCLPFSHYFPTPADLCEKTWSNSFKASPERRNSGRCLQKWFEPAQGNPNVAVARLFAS
T3 sequence (P14207 17-230): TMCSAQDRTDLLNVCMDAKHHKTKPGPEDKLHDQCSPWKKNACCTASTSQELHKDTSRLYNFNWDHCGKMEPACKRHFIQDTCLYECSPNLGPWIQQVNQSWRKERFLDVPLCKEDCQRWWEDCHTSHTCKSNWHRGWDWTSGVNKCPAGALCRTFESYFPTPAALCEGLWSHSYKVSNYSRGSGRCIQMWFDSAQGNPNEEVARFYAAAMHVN
T5 sequence (P15328 other isoform, or with tags, fused parts or gaps limits assumed): as the sequence (P15328 25-234 limits assumed) above, with I2T, A3T, W4R, R37K, A146P, H171Y counted along it
T6 sequence (P15328 25-233 limits assumed): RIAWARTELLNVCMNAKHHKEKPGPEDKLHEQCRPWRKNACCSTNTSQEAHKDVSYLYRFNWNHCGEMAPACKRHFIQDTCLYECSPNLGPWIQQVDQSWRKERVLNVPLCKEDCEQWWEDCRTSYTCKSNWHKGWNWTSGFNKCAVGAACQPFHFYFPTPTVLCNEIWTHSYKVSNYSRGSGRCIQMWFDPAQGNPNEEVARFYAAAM
T1 sequence (P41439 23-245 limits assumed): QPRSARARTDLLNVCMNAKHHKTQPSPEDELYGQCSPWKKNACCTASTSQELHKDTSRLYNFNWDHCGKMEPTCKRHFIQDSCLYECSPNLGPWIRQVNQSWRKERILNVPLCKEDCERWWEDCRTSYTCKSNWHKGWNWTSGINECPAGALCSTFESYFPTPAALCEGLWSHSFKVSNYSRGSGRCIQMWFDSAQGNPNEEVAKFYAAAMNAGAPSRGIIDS

binding result [1]: no binding (tested: 7 nM) | Kd [2]: 0.32 nM | % Positive Binding, singlet population [3]: 71% | AF647/DyLight650 GeoMean, singlet population [3]: 7660 | % Positive Binding, singlet population [4]: 0% | AF647/DyLight650 GeoMean, singlet population [4]: 7 | % Positive Binding, singlet population [5]: 0% | AF647/DyLight650 GeoMean, singlet population [5]: 27 | Kd [6]: 0.08 nM | Kd [7]: 0.122 nM | Kd [8]: 1.37 nM
B1: v23924 (antibody, human IgG1, kappa, V domains shown)
VH: QSVKESEGGLFKPTDTLTLTCTVSGFSLSSYGVSWVRQAPGNGLEWIGAVNSGGSAYYANWAKSRSTITRNTNLFTVTLKMTSLAVADTATYFCARSGSGYPMDYLAIWGPGTLVTVSS
VL: AYDMTQTPASVEVAVGGTVTIKCQASQSIGDWLAWYQQKPGQPPRLLIYEASTLASGVPSRFSGSGSGTQFTLTISGVECADAATYYCQQGYGRSNVDNIFGGGTEVVVKR
notes: Rabbit-human chimeric full-size antibody, human IgG1/kappa, HomoFc; also called variant v23924; parental chimeric anti-FRα antibody
